Experimental data as given in the supplement of paper PMC10567573.

B1: DLC1 (parent)
chain: NDDSADYQHFLQDCVDGLFKEVKE

Variants of: B1
Assay: protein stability index of a GFP-peptide fusion (GPS, HEK-293T) (PSI 1-6); higher = more stable
Settings: c terminus: a fixed tail appended
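Also: lentivirally expressed fusions sorted by FACS into six bins by GFP to DsRed ratio, PSI derived from sequencing read proportions per bin multiplied by bin number.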

Protein stability index of substitutions, site by site:
V15: F 3.85; L 3.34; N 4.78; Y 3.61; D 4.8; E 4.9; I 2.68; R 4.73; P 4.6; C 4.79; T 5.09; S 4.71; K 4.71; M 4.34; G 5.45; W 3.8
D6: M 2.63; T 2.5; R 2.94; P 3.38; H 3.3; E 3.29; Y 2.94; Q 3.12; S 3.44; G 3.62; F 2.81; N 2.4; K 3
K23: W 2.66; M 2.01; Q 2.75; V 2.05; T 1.65; E 3.72; S 3.09; L 2.06; G 4.37; N 3.37; A 2.56; H 3.88; Y 2.35; R 2.57; F 2.83
N1: W 1.28; R 2.53; M 1.79; Q 2.69; S 2.6; H 2.29; G 1.9; K 3.44; V 1.56; F 1.5; C 2.24
H9: Q 2.23; L 2.21; M 2.74; Y 2.24; E 3.47; K 2.63; W 3.03; N 3.02; F 2.32; G 2.62; I 2.48; S 3.43; C 2.53; A 3.13; P 3.71
G17: M 2.18; L 1.82; A 3.68; I 2.19; K 2.73; T 2.21; R 2.01; Y 2.44; V 2.16; Q 2.44; H 2.37; D 4.28; S 2.58
Q8: H 2.36; W 3.5; D 2.96; I 2.26; C 1.69; L 1.77; K 2.1; V 2.93; T 2.44; S 2.88; N 3.03; M 1.43; R 2.08; Y 1.56; A 2.4
E21: G 3.51; S 3.27; W 2.28; N 3.81; C 2; Y 2.03; I 3.01; T 1.98; Q 2.74; A 2.29; H 2.42; M 2.24; V 1.83; K 2.57
V22: S 5.4; A 4.42; H 5.31; R 5.08; T 4.87; I 2.58; Q 4.37; K 5.5; M 4.08; C 4.3; L 3.32; N 5.27; D 5.46; W 4.73; E 5.42
L11: N 4.76; G 5.35; M 3.29; H 5.08; Q 5.4; R 5.35; Y 4.47; I 3.54; A 5.62; S 5.1; T 4.94; D 5.47; C 3.07
D3: Y 2.24; P 2.65; G 2.23; I 2.19; C 1.71; S 2.4; E 3.85; T 2.2; M 2.26; V 3.69; N 3.02
F10: K 3.6; H 4.34; R 3.96; W 1.98; I 1.78; S 3.92; L 1.62; G 4.53; M 2.34; N 4.56; V 1.42; P 4.36; A 2.08; T 2.47; E 3.75
Y7: F 2.05; G 4.01; H 4.36; K 4.33; T 3.31; N 5.14; D 4.17; L 3.03; S 3.89; V 3; I 1.75; A 3.78; E 4.11; R 4.1; Q 4.52
C14: Q 4.71; K 4.78; M 3.63; P 5.07; S 4.91; R 4.87; L 1.97; E 5.38; N 5.34; H 5.11; T 4.12; D 5.03; Y 2.54; A 2.33
D13: H 1.51; E 2.66; N 2.38; V 1.56; A 1.79; C 2.09; S 2.2; F 1.86; P 2.27; L 1.76
Q12: Y 3.71; H 3.17; F 3.48; D 4.83; E 4.75; T 4.32; L 3.31; N 4.24; P 4.15; W 1.79; C 3.91; I 3; R 2.42; S 3.3; K 2.33; V 3.33
L18: I 3.73; M 4.47; K 5.3; D 5.73; W 4.64; V 4.53; T 4.96; S 5.03; C 5.13; G 5.6; A 5.02; E 5.3
A5: C 2.05; T 2.46; E 2.92; G 2.4; I 2.05; P 2.4; S 1.91; H 2.55; F 1.68; M 2.15; N 2.9; Y 2.17; R 2.49; Q 2.55
K20: N 3.08; S 4.74; G 3.84; I 3.05; M 2.68; H 3.45; F 2.93; Y 2.88; C 3.38; E 3.55; T 4; W 2.95; P 4.86; D 5.24
D2: K 2.11; T 2.65; H 2.66; V 1.96; F 2.47; C 2.14; Q 2.91; M 2.48; G 4.54; N 2.27; I 2.18; L 2.37; Y 1.2; A 2.17
S4: E 1.63; G 3.56; N 2.57; D 2.9; P 2.34; V 2.57; Y 2.22; A 2.35; H 2.65; K 1.36; L 2.91; C 1.56; M 2.05; R 2.41
D16: K 2.56; T 3.28; P 4.34; A 2.08; W 1.8; E 2.08; N 2.81; F 2.34; M 2.81; L 2.12; V 2.99; C 2.29; H 3.44; I 1.49
F19: N 5.21; G 5.54; M 3.72; H 4.82; V 2.89; Q 5.08; L 1.51; E 4.54; R 4.46; I 2.72; C 3.38; T 5.45; Y 2.94; S 5.67; A 5.02
E24: Q 2.51; P 4.54; T 2.81; C 2.33; N 2.5; V 2.69; M 2.3; S 1.91; W 1.67; K 2.2; L 2.36; R 2.01; H 1.88; Y 1.66; I 2.1; F 2.11
